The values that follow come from paper PMC11303537, “Deciphering the allosteric regulation of mycobacterial inosine-5′-monophosphate dehydrogenase” (Nature Communications, 2024).

Several values for one entry are separate records, joined by “and”; a condition that tells them apart may be missing. Equal values may be shown once.

This data set deals with the molecule itself. Description: cryo-EM structure; single-particle cryo-EM, MsmIMPDH octamer ~2.5-3.5 µM, 50 mM HEPES pH 7.4, 200 mM KCl, 5 mM DTT, 2 mM MgCl2 excess over nucleotides; datasets apo, ATP, ATP+IMP, ATP+GTP+IMP, ATP+ppGpp+IMP.

B1: inosine-5′-monophosphate dehydrogenase from Mycobacterium smegmatis (enzyme, Mycobacterium smegmatis MC2 155, UniProt A0QSU3 1-513, looked up)
chain: MSIAESSVPIAVPVPTGGDDPTKVAMLGLTFDDVLLLPAASDVVPATADTSSQLTKRIRLRVPLVSSAMDTVTESRMAIAMARAGGMGVLHRNLPVAEQAGQVETVKRSEAGMVTDPVTCSPDNTLAEVDAMCARFRISGLPVVDDTGELVGIITNRDMRFEVDQSKPVSEVMTKAPLITAKEGVSAEAALGLLRRHKIEKLPIVDGHGKLTGLITVKDFVKTEQFPLSTKDSDGRLLVGAAVGVGDDAWTRAMTLVDAGVDVLIVDTAHAHNRGVLDMVSRLKQAVGERVDVVGGNVATRAAAAALVEAGADAVKVGVGPGSICTTRVVAGVGAPQITAILEAVAACKPYGVPVIADGGLQYSGDIAKALAAGASTAMLGSLLAGTAESPGELIFVNGKQFKSYRGMGSLGAMQGRGAAKSYSKDRYFQDDVLSEDKLVPEGIEGRVPFRGPLGTVIHQLTGGLRAAMGYTGSATIEQLQQAQFVQITAAGLKESHPHDITMTVEAPNYYTR
notes: also called MsmIMPDH; MsmGuaB2; source: E. coli BL21 RIL LOBSTR, purified (HisTrap, TEV cleavage, second HisTrap, HiTrap Q, Superdex 200); not shown: His6, N-terminal, cleaved
In the case of B1, the “stoichiometry N” value was 8 and 4.
